Data from patent US20230304010A1, “COMPOSITIONS AND METHODS FOR TREATING VIRAL INFECTIONS” (priority 2020, published 2023).

Key:
[1] = target: SARS-CoV-2 Spike-Fc, Alpha (B1.1.7/United Kingdom) variant (SARS-CoV-2), P0DTC2
[2] = target: SARS-CoV-2 Spike-Fc, Beta (B1.351/South Africa) variant (SARS-CoV-2), P0DTC2
[3] = target: SARS-CoV-2 Spike-Fc, Delta (B1 617 2/India) variant (SARS-CoV-2), P0DTC2
[4] = target: SARS-CoV-2 Spike-Fc, Epsilon (B1429) variant (SARS-CoV-2), P0DTC2
[5] = target: SARS-CoV-2 Spike-Fc, Gamma (P1/Brazil) variant (SARS-CoV-2), P0DTC2
ACE2, Q9BYF1 [6] = assay: inhibitor screening kit; ACE2:SARS-CoV-2 Spike (Example 4 assay)
ACE2, Q9BYF1, sequence (Q9BYF1 18-740 limits assumed): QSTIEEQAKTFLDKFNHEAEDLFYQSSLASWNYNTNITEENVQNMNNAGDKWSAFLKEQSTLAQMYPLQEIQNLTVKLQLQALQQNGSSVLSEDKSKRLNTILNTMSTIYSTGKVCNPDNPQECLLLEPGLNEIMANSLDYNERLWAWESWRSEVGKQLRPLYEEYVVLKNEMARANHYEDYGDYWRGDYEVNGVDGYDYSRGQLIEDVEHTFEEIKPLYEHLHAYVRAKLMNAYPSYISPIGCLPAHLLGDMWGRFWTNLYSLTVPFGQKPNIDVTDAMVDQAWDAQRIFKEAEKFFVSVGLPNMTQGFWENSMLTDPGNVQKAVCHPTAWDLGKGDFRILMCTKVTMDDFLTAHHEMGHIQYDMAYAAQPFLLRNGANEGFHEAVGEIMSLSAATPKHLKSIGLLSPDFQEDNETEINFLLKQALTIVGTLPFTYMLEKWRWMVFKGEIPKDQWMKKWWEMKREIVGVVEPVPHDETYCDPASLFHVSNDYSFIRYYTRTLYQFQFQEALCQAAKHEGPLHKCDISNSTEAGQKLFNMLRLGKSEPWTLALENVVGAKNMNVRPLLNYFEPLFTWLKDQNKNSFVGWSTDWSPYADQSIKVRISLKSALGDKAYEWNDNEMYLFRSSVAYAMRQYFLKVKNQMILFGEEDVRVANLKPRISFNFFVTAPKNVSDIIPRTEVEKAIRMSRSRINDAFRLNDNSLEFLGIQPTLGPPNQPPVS

ACE2, Q9BYF1 [7] = assay: inhibitor screening kit; SARS-CoV-2 Spike:ACE2 (Example 3 assay)

Row | Binder | IC50 [1] [nM] | IC50 [2] [nM] | IC50 [3] [nM] | IC50 [4] [nM] | IC50 [5] [nM] | IC50 (ACE2, Q9BYF1 [6]) [nM] | IC50 (ACE2, Q9BYF1 [7]) [nM]
1 | EQAKTFLDKFNHEAEDLFLWRALWRLWRSLWRLLWK (modifications not checked) [Seq33 (LNCOV-18)] | 17.8 | 28.8 | 25.7 | 31.4 | 20.2 | – | –
2 | VEGFNCYFLWRALWRLWRSLWRLLWK (modifications not checked) [Seq18 (LNCOV-16)] | – | – | – | – | – | > 10000 | > 10000
3 | KVGGNYNYKLWRALWRLWRSLWRLLWK (modifications not checked) [Seq13 (LNCOV-11)] | – | – | – | – | – | > 10000 | > 10000
4 | GNYNYLYRLLWRALWRLWRSLWRLLWK (modifications not checked) [seq14 (LNCOV-12)] | – | – | – | – | – | > 10000 | > 10000
5 | KTFLDKFNHEAEDLFPGPKWSAFLKEQSTLAQMYG (modifications not checked) [Seq28 (LNCOV-20)] | 24.6 | 31.5 | 29.2 | 28.8 | 41.7 | – | –
